The text below walks through data of patent publication US20250115669A1, “FGFR1/KLB Targeting Agonistic Antigen-Binding Proteins and Conjugates Thereof with GLP-1R Agonistic Peptides” (SANOFI, priority 2020, published 2025).

Data set [1] has as its target T1, FGFR1c and co-receptor beta-Klotho (KLB) (Homo sapiens, UniProt P11362+Q86Z14).
T1 construct: host or cells: iLite FGF21 Assay Ready Cells (HEK293)
As to the kind of experiment: Luciferase reporter gene assay (iLite FGF21 Assay Ready Cells), FGF21-like signaling. In kind it is cell-based. The following applies: Luciferase gene reporter assay, mean, n=3-7. (In general: In a reporter assay the amount or activity of a reporter protein is the signal.)

The next data set addresses T2, human beta-Klotho (Homo sapiens, UniProt Q86Z14).
T2 sequence (Q86Z14 1-1044): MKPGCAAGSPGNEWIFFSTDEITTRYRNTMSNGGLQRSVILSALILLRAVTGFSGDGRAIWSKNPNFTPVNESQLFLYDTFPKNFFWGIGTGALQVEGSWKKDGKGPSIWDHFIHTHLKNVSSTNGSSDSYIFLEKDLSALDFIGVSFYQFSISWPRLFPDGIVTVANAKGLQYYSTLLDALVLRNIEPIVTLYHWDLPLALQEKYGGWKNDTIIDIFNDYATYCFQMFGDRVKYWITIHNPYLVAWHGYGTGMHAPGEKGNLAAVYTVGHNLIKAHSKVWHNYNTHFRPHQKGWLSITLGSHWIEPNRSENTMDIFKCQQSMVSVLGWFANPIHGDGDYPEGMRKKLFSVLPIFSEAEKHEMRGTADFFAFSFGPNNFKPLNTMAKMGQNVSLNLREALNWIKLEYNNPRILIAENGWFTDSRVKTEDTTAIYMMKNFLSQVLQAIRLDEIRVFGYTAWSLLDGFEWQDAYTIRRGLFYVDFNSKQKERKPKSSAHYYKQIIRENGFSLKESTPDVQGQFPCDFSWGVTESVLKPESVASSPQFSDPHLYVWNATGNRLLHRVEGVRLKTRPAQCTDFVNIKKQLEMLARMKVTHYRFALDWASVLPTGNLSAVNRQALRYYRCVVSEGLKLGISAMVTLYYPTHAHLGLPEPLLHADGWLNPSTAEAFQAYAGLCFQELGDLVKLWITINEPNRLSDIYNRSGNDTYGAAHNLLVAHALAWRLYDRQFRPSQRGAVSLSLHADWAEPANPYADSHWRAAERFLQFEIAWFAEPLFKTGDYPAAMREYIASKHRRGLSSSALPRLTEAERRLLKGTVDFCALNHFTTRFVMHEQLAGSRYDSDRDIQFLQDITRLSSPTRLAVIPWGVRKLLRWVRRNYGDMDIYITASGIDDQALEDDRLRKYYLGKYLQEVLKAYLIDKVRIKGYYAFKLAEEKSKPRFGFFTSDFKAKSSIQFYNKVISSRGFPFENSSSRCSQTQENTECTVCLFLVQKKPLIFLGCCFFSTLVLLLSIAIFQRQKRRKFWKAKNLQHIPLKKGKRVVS
Kind of data set: SPR off-rate screening of antibody mutants (human beta-Klotho captured by anti-His antibody). It counts as binding. The following applies: mean, n=3. The method, boiled down:
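Single-concentration SPR screen: mutant antibodies at 50 nmol/L were passed over captured beta-Klotho, and kd was derived from a single exponential fit.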

Data set [2] can be described thus: In vivo PK in transgenic humanized FcRn mice (Tg32). The following applies: 0.3 mg/kg single IV, plasma, noncompartmental analysis. The method, then: In vivo PK studies were conducted in transgenic humanized FcRn mice (Tg32). For these studies, no GLP compliance was claimed.

T1 sequence (P11362 22-820 isoform P11362-2 limits assumed, one chain of several): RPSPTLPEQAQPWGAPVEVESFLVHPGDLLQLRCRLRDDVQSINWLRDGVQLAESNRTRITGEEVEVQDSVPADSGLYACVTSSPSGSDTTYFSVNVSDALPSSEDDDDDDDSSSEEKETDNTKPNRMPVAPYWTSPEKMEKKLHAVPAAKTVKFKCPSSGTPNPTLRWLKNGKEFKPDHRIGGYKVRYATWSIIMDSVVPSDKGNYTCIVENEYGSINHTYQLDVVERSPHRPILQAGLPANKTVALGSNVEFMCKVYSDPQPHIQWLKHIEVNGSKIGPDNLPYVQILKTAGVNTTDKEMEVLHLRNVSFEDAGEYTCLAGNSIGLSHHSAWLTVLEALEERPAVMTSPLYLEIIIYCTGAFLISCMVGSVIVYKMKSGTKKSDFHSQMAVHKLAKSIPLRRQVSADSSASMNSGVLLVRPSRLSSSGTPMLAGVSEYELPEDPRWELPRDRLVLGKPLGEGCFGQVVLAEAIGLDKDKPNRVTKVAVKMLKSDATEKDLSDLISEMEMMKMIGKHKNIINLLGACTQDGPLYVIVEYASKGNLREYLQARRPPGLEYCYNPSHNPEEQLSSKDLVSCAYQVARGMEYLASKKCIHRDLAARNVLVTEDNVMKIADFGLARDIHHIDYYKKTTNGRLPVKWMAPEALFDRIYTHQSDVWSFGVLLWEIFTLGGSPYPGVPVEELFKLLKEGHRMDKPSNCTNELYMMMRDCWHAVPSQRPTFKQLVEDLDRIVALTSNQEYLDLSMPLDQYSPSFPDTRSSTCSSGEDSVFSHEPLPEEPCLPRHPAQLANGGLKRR

B1: Ab0370: IgG4 PE; 16H7 VL (Y48del, W90H); 16H7 VH (M34V, H52W, I83T, D109E) (antibody)
VH: QVTLKESGPVLVKPTETLTLTCTVSGFSLNNARVGVSWIRQPPGKALEWLAWIFSNDEKSYSTSLKSRLTISKDTSKSQVVLTMTNMDPVDTATYYCARSVVTGGYYYEGMDVWGQGTTVTVSS
light: SYVLTQPPSVSVAPGQTARITCGGNNIGSESVHWYQQKPGQAPVLVVDDSDRPSGIPERFSGSNSGNTATLTISRVEAGDEADYYCQVHDGNSDHVVFGGGTKLTVLGQPKANPTVTLFPPSSEELQANKATLVCLISDFYPGAVTVAWKADGSPVKAGVETTKPSKQSNNKYAASSYLSLTPEQWKSHRSYSCQVTHEGSTVEKTVAPTECS
Consider B1, for which, in data set [1], the “HEK293 hFGFR1c + KLB (iLite) Emax” value stood at 490.05%.

B2: Ab0314: IgG4 PE; 16H7 VL (N25S, D91T, N93E); 16H7 VH (M34V, I83T, D109E) (antibody)
VH: QVTLKESGPVLVKPTETLTLTCTVSGFSLNNARVGVSWIRQPPGKALEWLAHIFSNDEKSYSTSLKSRLTISKDTSKSQVVLTMTNMDPVDTATYYCARSVVTGGYYYEGMDVWGQGTTVTVSS
light: SYVLTQPPSVSVAPGQTARITCGGSNIGSESVHWYQQKPGQAPVLVVYDDSDRPSGIPERFSGSNSGNTATLTISRVEAGDEADYYCQVWTGESDHVVFGGGTKLTVLGQPKANPTVTLFPPSSEELQANKATLVCLISDFYPGAVTVAWKADGSPVKAGVETTKPSKQSNNKYAASSYLSLTPEQWKSHRSYSCQVTHEGSTVEKTVAPTECS
For the molecule B2, the “koff human KLB” value with human beta-Klotho came to 0.000402 s⁻¹. Moreover, the t½ in data set [2] was determined as 18 days.

B3: Ab0317: IgG4 PE; 16H7 VL (D50E, D91T, N93E); 16H7 VH (M34V, I83T, D109E) (antibody)
VH: QVTLKESGPVLVKPTETLTLTCTVSGFSLNNARVGVSWIRQPPGKALEWLAHIFSNDEKSYSTSLKSRLTISKDTSKSQVVLTMTNMDPVDTATYYCARSVVTGGYYYEGMDVWGQGTTVTVSS
light: SYVLTQPPSVSVAPGQTARITCGGNNIGSESVHWYQQKPGQAPVLVVYDESDRPSGIPERFSGSNSGNTATLTISRVEAGDEADYYCQVWTGESDHVVFGGGTKLTVLGQPKANPTVTLFPPSSEELQANKATLVCLISDFYPGAVTVAWKADGSPVKAGVETTKPSKQSNNKYAASSYLSLTPEQWKSHRSYSCQVTHEGSTVEKTVAPTECS
With B3, the “koff human KLB” value in the data set with human beta-Klotho is “invalid fit”.

B4: Ab0318: IgG4 PE; 16H7 VL (N25S, D50E, D91T, N93E); 16H7 VH (M34V, I83T, D109E) (antibody)
VH: QVTLKESGPVLVKPTETLTLTCTVSGFSLNNARVGVSWIRQPPGKALEWLAHIFSNDEKSYSTSLKSRLTISKDTSKSQVVLTMTNMDPVDTATYYCARSVVTGGYYYEGMDVWGQGTTVTVSS
light: SYVLTQPPSVSVAPGQTARITCGGSNIGSESVHWYQQKPGQAPVLVVYDESDRPSGIPERFSGSNSGNTATLTISRVEAGDEADYYCQVWTGESDHVVFGGGTKLTVLGQPKANPTVTLFPPSSEELQANKATLVCLISDFYPGAVTVAWKADGSPVKAGVETTKPSKQSNNKYAASSYLSLTPEQWKSHRSYSCQVTHEGSTVEKTVAPTECS
For B4, the “koff human KLB” value with human beta-Klotho was “invalid fit”.

B5: Ab0375: IgG4 PE; 16H7 VL (Y48del, D95E, W90F, S1C, S94C); 16H7 VH (M34V, F54W, I83T, D109E) (antibody)
VH: QVTLKESGPVLVKPTETLTLTCTVSGFSLNNARVGVSWIRQPPGKALEWLAHIWSNDEKSYSTSLKSRLTISKDTSKSQVVLTMTNMDPVDTATYYCARSVVTGGYYYEGMDVWGQGTTVTVSS
light: CYVLTQPPSVSVAPGQTARITCGGNNIGSESVHWYQQKPGQAPVLVVDDSDRPSGIPERFSGSNSGNTATLTISRVEAGDEADYYCQVFDGNCEHVVFGGGTKLTVLGQPKANPTVTLFPPSSEELQANKATLVCLISDFYPGAVTVAWKADGSPVKAGVETTKPSKQSNNKYAASSYLSLTPEQWKSHRSYSCQVTHEGSTVEKTVAPTECS
For the molecule B5, the “koff human KLB” value with human beta-Klotho is listed as “no binding”.

Broadly, the t½ is how long it takes for the measured level to halve. Higher therefore signals slow decline.
